According to US20260117202A1:
Several values for one entry are separate records, joined by “and”; a condition that tells them apart may be missing. Identical values can stand only once.

How the values were obtained:
FHCS-2 (RSV strain A2) [1] = target: FHCS-2 (RSV strain A2) (UniProt P03420); assay: ELISA; F coated 78.13 ng/ml; stored 37° C. 4 W
FHCS-1 (RSV strain A2) [2] = target: FHCS-1 (RSV strain A2) (UniProt P03420); assay: ELISA; F coated 78.13 ng/ml; stored 37° C. 4 W
FHCS-4 (RSV strain A2) [3] = target: FHCS-4 (RSV strain A2) (UniProt P03420); assay: ELISA; F coated 78.13 ng/ml; stored 37° C. 4 W
FHCS-2 (RSV strain A2) [4] = target: FHCS-2 (RSV strain A2) (UniProt P03420); assay: ELISA; F coated 1250 ng/ml; stored -80° C.
FHCS-1 (RSV strain A2) [5] = target: FHCS-1 (RSV strain A2) (UniProt P03420); assay: ELISA; F coated 1250 ng/ml; stored -80° C.
FHCS-4 (RSV strain A2) [6] = target: FHCS-4 (RSV strain A2) (UniProt P03420); assay: ELISA; F coated 1250 ng/ml; stored -80° C.
FHCS-2 (RSV strain A2) [7] = target: FHCS-2 (RSV strain A2) (UniProt P03420); assay: ELISA; F coated 312.5 ng/ml; stored -80° C.
FHCS-4 (RSV strain A2) [8] = target: FHCS-4 (RSV strain A2) (UniProt P03420); assay: ELISA; F coated 312.5 ng/ml; stored -80° C.
FHCS-2 (RSV strain A2) [9] = target: FHCS-2 (RSV strain A2) (UniProt P03420); assay: ELISA; F coated 1250 ng/ml; stored 37° C. 4 W
FHCS-1 (RSV strain A2) [10] = target: FHCS-1 (RSV strain A2) (UniProt P03420); assay: ELISA; F coated 1250 ng/ml; stored 37° C. 4 W
FHCS-4 (RSV strain A2) [11] = target: FHCS-4 (RSV strain A2) (UniProt P03420); assay: ELISA; F coated 1250 ng/ml; stored 37° C. 4 W
FHCS-2 (RSV strain A2) [12] = target: FHCS-2 (RSV strain A2) (UniProt P03420); assay: ELISA; F coated 312.5 ng/ml; stored 37° C. 4 W
FHCS-1 (RSV strain A2) [13] = target: FHCS-1 (RSV strain A2) (UniProt P03420); assay: ELISA; F coated 312.5 ng/ml; stored 37° C. 4 W
FHCS-4 (RSV strain A2) [14] = target: FHCS-4 (RSV strain A2) (UniProt P03420); assay: ELISA; F coated 312.5 ng/ml; stored 37° C. 4 W
FHCS-2 (RSV strain A2) [15] = target: FHCS-2 (RSV strain A2) (UniProt P03420); assay: ELISA; F coated 2500 ng/ml; stored -80° C.
FHCS-1 (RSV strain A2) [16] = target: FHCS-1 (RSV strain A2) (UniProt P03420); assay: ELISA; F coated 2500 ng/ml; stored -80° C.
FHCS-4 (RSV strain A2) [17] = target: FHCS-4 (RSV strain A2) (UniProt P03420); assay: ELISA; F coated 2500 ng/ml; stored -80° C.
FHCS-2 (RSV strain A2) [18] = target: FHCS-2 (RSV strain A2) (UniProt P03420); assay: ELISA; F coated 625 ng/ml; stored -80° C.
FHCS-1 (RSV strain A2) [19] = target: FHCS-1 (RSV strain A2) (UniProt P03420); assay: ELISA; F coated 625 ng/ml; stored -80° C.
FHCS-4 (RSV strain A2) [20] = target: FHCS-4 (RSV strain A2) (UniProt P03420); assay: ELISA; F coated 625 ng/ml; stored -80° C.
FHCS-2 (RSV strain A2) [21] = target: FHCS-2 (RSV strain A2) (UniProt P03420); assay: ELISA; F coated 78.13 ng/ml; stored -80° C.
FHCS-1 (RSV strain A2) [22] = target: FHCS-1 (RSV strain A2) (UniProt P03420); assay: ELISA; F coated 78.13 ng/ml; stored -80° C.
FHCS-4 (RSV strain A2) [23] = target: FHCS-4 (RSV strain A2) (UniProt P03420); assay: ELISA; F coated 78.13 ng/ml; stored -80° C.
FHCS-2 (RSV strain A2) [24] = target: FHCS-2 (RSV strain A2) (UniProt P03420); assay: ELISA; F coated 625 ng/ml; stored 37° C. 4 W
FHCS-1 (RSV strain A2) [25] = target: FHCS-1 (RSV strain A2) (UniProt P03420); assay: ELISA; F coated 625 ng/ml; stored 37° C. 4 W
FHCS-4 (RSV strain A2) [26] = target: FHCS-4 (RSV strain A2) (UniProt P03420); assay: ELISA; F coated 625 ng/ml; stored 37° C. 4 W
FHCS-2 (RSV strain A2) [27] = target: FHCS-2 (RSV strain A2) (UniProt P03420); assay: ELISA; F coated 2500 ng/ml; stored 37° C. 4 W
FHCS-1 (RSV strain A2) [28] = target: FHCS-1 (RSV strain A2) (UniProt P03420); assay: ELISA; F coated 2500 ng/ml; stored 37° C. 4 W
FHCS-4 (RSV strain A2) [29] = target: FHCS-4 (RSV strain A2) (UniProt P03420); assay: ELISA; F coated 2500 ng/ml; stored 37° C. 4 W
FHCS-2 (RSV strain A2) [30] = target: FHCS-2 (RSV strain A2) (UniProt P03420); assay: ELISA; F coated 625 ng/ml; stored -80° C.; remark: listed apart in the source
FHCS-4 (RSV strain A2) [31] = target: FHCS-4 (RSV strain A2) (UniProt P03420); assay: ELISA; F coated 625 ng/ml; stored -80° C.; remark: listed apart in the source
FHCS-2 (RSV strain A2) [32] = target: FHCS-2 (RSV strain A2) (UniProt P03420); assay: ELISA; F coated 10000 ng/ml; stored -80° C.
FHCS-1 (RSV strain A2) [33] = target: FHCS-1 (RSV strain A2) (UniProt P03420); assay: ELISA; F coated 10000 ng/ml; stored -80° C.
FHCS-4 (RSV strain A2) [34] = target: FHCS-4 (RSV strain A2) (UniProt P03420); assay: ELISA; F coated 10000 ng/ml; stored -80° C.
FHCS-2 (RSV strain A2) [35] = target: FHCS-2 (RSV strain A2) (UniProt P03420); assay: ELISA; F coated 10000 ng/ml; stored -80° C.; remark: listed apart in the source
FHCS-1 (RSV strain A2) [36] = target: FHCS-1 (RSV strain A2) (UniProt P03420); assay: ELISA; F coated 10000 ng/ml; stored -80° C.; remark: listed apart in the source
FHCS-4 (RSV strain A2) [37] = target: FHCS-4 (RSV strain A2) (UniProt P03420); assay: ELISA; F coated 10000 ng/ml; stored -80° C.; remark: listed apart in the source

Substance	OD value (FHCS-2 (RSV strain A2) [4])	OD value (FHCS-1 (RSV strain A2) [5])	OD value (FHCS-4 (RSV strain A2) [6])	OD value (FHCS-2 (RSV strain A2) [7])	OD value (FHCS-4 (RSV strain A2) [8])	OD value (FHCS-2 (RSV strain A2) [9])	OD value (FHCS-1 (RSV strain A2) [10])	OD value (FHCS-4 (RSV strain A2) [11])	OD value (FHCS-2 (RSV strain A2) [12])	OD value (FHCS-1 (RSV strain A2) [13])	OD value (FHCS-4 (RSV strain A2) [14])	OD value (FHCS-2 (RSV strain A2) [15])	OD value (FHCS-1 (RSV strain A2) [16])	OD value (FHCS-4 (RSV strain A2) [17])	OD value (FHCS-2 (RSV strain A2) [18])	OD value (FHCS-1 (RSV strain A2) [19])	OD value (FHCS-4 (RSV strain A2) [20])	OD value (FHCS-2 (RSV strain A2) [24])	OD value (FHCS-1 (RSV strain A2) [25])	OD value (FHCS-4 (RSV strain A2) [26])	further results
Synagis® (antibody)	0.572 OD and 0.767 OD	0.357 OD and 0.35 OD	0.252 OD and 0.209 OD	0.089 OD and 0.108 OD	0.052 OD and 0.033 OD	0.995 OD and 0.91 OD	1.17 OD and 1.22 OD	1.05 OD and 0.985 OD	0.154 OD and 0.143 OD	0.142 OD and 0.168 OD	0.138 OD and 0.12 OD	1.65 OD and 1.91 OD	1.35 OD	0.825 OD and 0.743 OD	0.209 OD and 0.208 OD	0.17 OD and 0.181 OD	0.094 OD and 0.066 OD	0.42 OD and 0.4 OD	0.324 OD and 0.612 OD	0.378 OD and 0.389 OD	OD value (FHCS-2 (RSV strain A2) [1]): 0.03 OD and 0.028 OD; OD value (FHCS-1 (RSV strain A2) [2]): 0.025 OD and 0.032 OD; OD value (FHCS-4 (RSV strain A2) [3]): 0.019 OD and 0.025 OD; OD value (FHCS-2 (RSV strain A2) [21]): 0.014 OD and 0.015 OD; OD value (FHCS-1 (RSV strain A2) [22]): 0.009 OD and 0.01 OD; OD value (FHCS-4 (RSV strain A2) [23]): 0.009 OD and 0.011 OD; OD value (FHCS-2 (RSV strain A2) [27]): 1.82 OD and 1.84 OD; OD value (FHCS-1 (RSV strain A2) [28]): 1.91 OD and 2.11 OD; OD value (FHCS-4 (RSV strain A2) [29]): 1.8 OD and 1.78 OD
AM14 monoclonal antibody	0.009 OD and 0.013 OD	0.006 OD	0.013 OD and 0.011 OD	0.005 OD	0.004 OD and 0.007 OD	0.025 OD and 0.019 OD	0.018 OD and 0.024 OD	0.007 OD and 0.008 OD	0.005 OD	0.005 OD	0.004 OD and 0.007 OD	0.02 OD and 0.024 OD	0.021 OD and 0.03 OD	0.04 OD and 0.028 OD	0.005 OD and 0.006 OD	0.003 OD and 0.005 OD	0.007 OD	0.005 OD and 0.006 OD	0.006 OD and 0.008 OD	0.006 OD and 0.007 OD	OD value (FHCS-2 (RSV strain A2) [30]): 0.008 OD; OD value (FHCS-4 (RSV strain A2) [31]): 0.005 OD and 0.006 OD; OD value (FHCS-2 (RSV strain A2) [32]): 2.01 OD and 2.11 OD; OD value (FHCS-1 (RSV strain A2) [33]): 1.77 OD and 2.07 OD; OD value (FHCS-4 (RSV strain A2) [34]): 0.825 OD and 0.743 OD; OD value (FHCS-2 (RSV strain A2) [35]): 1.88 OD and 2.15 OD; OD value (FHCS-1 (RSV strain A2) [36]): 1.82 OD and 2.12 OD; OD value (FHCS-4 (RSV strain A2) [37]): 2.13 OD and 1.93 OD; OD value (FHCS-2 (RSV strain A2) [27]): 0.45 OD and 0.185 OD; OD value (FHCS-1 (RSV strain A2) [28]): 0.109 OD and 0.096 OD; OD value (FHCS-4 (RSV strain A2) [29]): 0.045 OD and 0.019 OD
